Values of other authors in paper PMC5567442.

Molecular target: Kv1.3 (UniProt P22001)
Chain of UniProt P22001 (P22001 whole entry): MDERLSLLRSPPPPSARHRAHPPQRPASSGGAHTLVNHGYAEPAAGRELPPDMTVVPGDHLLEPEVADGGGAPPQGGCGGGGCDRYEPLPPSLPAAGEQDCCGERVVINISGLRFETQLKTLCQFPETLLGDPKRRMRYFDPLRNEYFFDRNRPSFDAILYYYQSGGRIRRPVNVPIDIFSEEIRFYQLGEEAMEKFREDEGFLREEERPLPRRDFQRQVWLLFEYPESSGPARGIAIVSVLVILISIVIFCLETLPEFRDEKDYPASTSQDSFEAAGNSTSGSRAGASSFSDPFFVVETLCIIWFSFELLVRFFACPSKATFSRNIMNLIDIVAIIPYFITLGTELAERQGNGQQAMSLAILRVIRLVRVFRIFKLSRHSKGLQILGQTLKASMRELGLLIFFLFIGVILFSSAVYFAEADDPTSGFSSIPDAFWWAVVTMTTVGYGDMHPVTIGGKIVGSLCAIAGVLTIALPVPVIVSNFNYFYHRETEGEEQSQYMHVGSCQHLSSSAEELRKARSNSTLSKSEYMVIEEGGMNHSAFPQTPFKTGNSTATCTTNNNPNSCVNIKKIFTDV

Substance: Agitoxin-2 (from UniProt P46111)
- Kd: 0.177 nM
